Tested on: human monocytes
Assay type: cell-based

B1: Rv0577: ~32 kDa IL-10 producing protein encoded by Rv0577 (cfp32), SEQ ID NO: 2 (protein, listed as Mycobacterium tuberculosis)
chain: MPKRSEYRQGTPNWVDLQTTDQSAAKKFYTSLFGWGYDDNPVPGGGGVYSMATLNGEAVAAIAPMPPGAPEGMPPIWNTYIAVDDVDAVVDKVVPGGGQVMMPAFDIGDAGRMSFITDPTGAAVGLWQANRHIGATLVNETGTLIWNELLTDKPDLALAFYEAVVGLTHSSMEIAAGQNYRVLKAGDAEVGGCMEPPMPGVPNHWHVYFAVDDADATAAKAAAAGGQVIAEPADIPSVGRFAVLSDPQGAIFSVLKPAPQQ
- IL-10 inducing activity of Mtb attributed to Rv0577: ~60%

Source: patent publication US20050267025A1, “Compositions and methods for treatment of infectious and inflammatory diseases” (priority 2002, published 2005)
